{"source": "patent US9969998B2", "about": "“Compositions of adenosine deaminase-2 (ADA2), variants thereof and methods of using same” (Halozyme, Inc., priority 2014, dated 2018)", "molecules": {"B1": {"name": "R23A: ADA2 variant SEQ ID NO:28 (protein)", "chain": "IDETRAHLLLKEKMMRLGGALVLNTKEELANERLMTLKIAEMKEAMRTLIFPPSMHFFQAKHLIERSQVFNILRMMPKGAALHLHDIGIVTMDWLVRNVTYRPHCHICFTPRGIMQFRFAHPTPRPSEKCSKWILLEDYRKRVQNVTEFDDSLLRNFTLVTQHPEVIYTNQNVVWSKFETIFFTISGLIHYAPVFRDYVFRSMQEFYEDNVLYMEIRARLLPVYELSGEHHDEEWSVKTYQEVAQKFVETHPEFIGIKIIYSDHRSKDVAVIAESIRMAMGLRIKFPTVVAGFDLVGHEDTGHSLHDYKEALMIPAKDGVKLPYFFHAGETDWQGTSIDRNILDALMLNTTRIGHGFALSKHPAVRTYSWKKDIPIEVCPISNQVLKLVSDLRNHPVATLMATGHPMVISSDDPAMFGAKGLSYDFYEVFMGIGGMKADLRTLKQLAMNSIKYSTLLESEKNTFMEIWKKRWDKFIADVATK", "modifications": "human ADA2 R20A, mature numbering"}, "B2": {"name": "R222Q: ADA2 variant SEQ ID NO:39 (protein)", "chain": "IDETRAHLLLKEKMMRLGGRLVLNTKEELANERLMTLKIAEMKEAMRTLIFPPSMHFFQAKHLIERSQVFNILRMMPKGAALHLHDIGIVTMDWLVRNVTYRPHCHICFTPRGIMQFRFAHPTPRPSEKCSKWILLEDYRKRVQNVTEFDDSLLRNFTLVTQHPEVIYTNQNVVWSKFETIFFTISGLIHYAPVFRDYVFRSMQEFYEDNVLYMEIRAQLLPVYELSGEHHDEEWSVKTYQEVAQKFVETHPEFIGIKIIYSDHRSKDVAVIAESIRMAMGLRIKFPTVVAGFDLVGHEDTGHSLHDYKEALMIPAKDGVKLPYFFHAGETDWQGTSIDRNILDALMLNTTRIGHGFALSKHPAVRTYSWKKDIPIEVCPISNQVLKLVSDLRNHPVATLMATGHPMVISSDDPAMFGAKGLSYDFYEVFMGIGGMKADLRTLKQLAMNSIKYSTLLESEKNTFMEIWKKRWDKFIADVATK", "modifications": "human ADA2 R219Q, mature numbering"}, "B3": {"name": "R23D: ADA2 variant SEQ ID NO:29 (protein)", "chain": "IDETRAHLLLKEKMMRLGGDLVLNTKEELANERLMTLKIAEMKEAMRTLIFPPSMHFFQAKHLIERSQVFNILRMMPKGAALHLHDIGIVTMDWLVRNVTYRPHCHICFTPRGIMQFRFAHPTPRPSEKCSKWILLEDYRKRVQNVTEFDDSLLRNFTLVTQHPEVIYTNQNVVWSKFETIFFTISGLIHYAPVFRDYVFRSMQEFYEDNVLYMEIRARLLPVYELSGEHHDEEWSVKTYQEVAQKFVETHPEFIGIKIIYSDHRSKDVAVIAESIRMAMGLRIKFPTVVAGFDLVGHEDTGHSLHDYKEALMIPAKDGVKLPYFFHAGETDWQGTSIDRNILDALMLNTTRIGHGFALSKHPAVRTYSWKKDIPIEVCPISNQVLKLVSDLRNHPVATLMATGHPMVISSDDPAMFGAKGLSYDFYEVFMGIGGMKADLRTLKQLAMNSIKYSTLLESEKNTFMEIWKKRWDKFIADVATK", "modifications": "human ADA2 R20D, mature numbering"}}, "key": {"[1]": {"test": "Adenosine deaminase (ADA) enzymatic activity assay kit", "format": "biochemical", "details": "for adenosine deaminase activity mU/mL / ΔA/min, adenosine deaminase activity: protein diluted to 5 μg/mL, serially diluted 2 fold (Table 21); for % activity vs. WT: relative to rHuADA2 WT (Table 21)", "method": "Adenosine deaminase activity was determined using an adenosine deaminase (ADA) assay kit (Genway, San Diego, Calif.; Cat. No. BQ014EALD) with minor modifications. The ADA assay is based on the enzymatic deamination of adenosine to inosine, which is converted to hypoxanthine by purine nucleoside phosphorylase (PNP). Hypoxanthine is then converted to uric acid and hydrogen peroxide by xanthine oxidase (XOD). Hydrogen peroxide is further reacted with N-Ethyl-N-(2-hydroxy-3-sulfopropyl)-3-methylaniline (EHSPT) and 4-aminoantipyrine (4-AA) in the presence of peroxidase (POD) to generate quinone dye, which is monitored in a kinetic manner.\nBriefly, 5 μL samples in duplicates (at appropriate dilutions to measure steady-state, non-saturating enzyme activity) were added to 120 μL R1 reagent (provided by the manufacturer; 50 mM Tris HCL, pH 8.0, 2 mM 4-AA, 0.1 U/mL PNP, 0.2 U/mL XOD, 0.6 U/mL peroxidase) in a 96 well plate, according to manufacturer's instructions. The mixtures were incubated at 37° C. for approximately 5 min and 60 μL of R2 reagent (provided by the manufacturer; 50 mM Tris HCl, pH 4.0, 10 mM Adenosine, 2 mM EHSPT) was added to the mixtures. Then, change in absorbance (AA) at 556 nm over time at 37° C. was measured. One unit of ADA is the amount of ADA that generates one μmole of inosine from adenosine per minute at 37° C. Adenosine deaminase activity in mU/mL was calculated using the following formula: 1 mU/mL=(ΔA/min×Tv)/(Sv×ϵ×1) • where Tv=total volume (185 μL), Sv=sample volume (5 μL), ϵ=32.2×10^−3 μM^−1 cm^−1, 1=0.5 cm.\nAdenosine deaminase activity of WT rHuADA2 and variants tested above were determined using the adenosine deaminase activity (ADA) assay described in Example 4. Activity was assessed on purified rHuADA2 WT and variants that were diluted to 5 μg/mL, and then serially diluted 2 fold to generate 4 measurements.\nAdenosine deaminase activity of PEGylated rHuADA2 and variants was assessed using the method described in Example 4, and compared to the activity of the corresponding non-PEGylated form.\nSelected candidate variants described in Table 8 above, containing an amino acid substitution in a residue that play a role in enzymatic activity, were assessed for their adenosine deaminase activity using the method described in Example 4. To perform the experiments, purified WT rHuADA2 and tested variants were prepared at 5 μg/mL concentration to normalize the amount of protein in each experiment."}, "[2]": {"test": "Heparin-affinity chromatography (heparin-Sepharose, SDS-PAGE)", "format": "binding", "details": "for Heparin Column Binding: compared to WT rHuADA2, 0.3 mg/mL protein", "method": "To assess binding of variants to heparin, heparin-affinity chromatography was employed to identify heparin-bound variants. Heparin binding was tested by mixing 35 μL of rHuADA2 WT and variants with 20 μL heparin-Sepharose™ resin (GE Healthcare, Pittsburgh, Pa.; Cat. No. 17-0998-01), followed by incubating at room temperature for 30 min. The mixture was then centrifuged through a 0.22 μm centrifuge filter and the flow-through, containing the unbound protein, was collected for analysis on an SDS-PAGE gel. 35 μL of 1.5 M NaCl was added to heparin-Sepharose resin and incubated at room temperature (RT) for 10 min to elute the remaining heparin-bound protein from the heparin-Sepharose. Samples of purified WT rHuADA2 and tested variants, before and after mixing with the heparin-Sepharose resin, were analyzed by SDS-PAGE to compare the degree of heparin binding."}, "[3]": {"test": "Kinetic assessment of adenosine deaminase activity (ammonia assay, Michaelis-Menten)", "format": "biochemical", "details": "for kcat: kcat=Vmax/0.0085/60", "method": "Adenosine deaminase activity was determined by the measurement of ammonia released from adenosine when broken down to inosine. Ammonia was measured using a commercially available Ammonia Assay kit (Cat. No. AA0100, Sigma-Aldrich, St. Louis, Mo.). The kit contains dry reagents containing α-ketoglutaric acid and NADPH, which were reconstituted with 5 mL water prior to use in the assay. Ammonia reacts with α-ketogluaric acid (KGA) and reduced nicotinamide adenine dinucleotide phosphate (NADPH) in the presence of L-glutamate dehydrogenase (GDH).\nKinetics parameters of rHuADA2 WT and variants were compared using this assay at different adenosine concentrations at pH 7.6 and 6.5. Adenosine concentrations ranging from 20 μM to 20 mM were used. Sub-molar concentration of adenosine stock was prepared in 1N NaOH.\nFor the enzymatic assays at pH 7.6, adenosine was serially diluted with 100 mM sodium acetate (NaOAc), pH 4.9. A 2× reaction mixture was prepared, containing reconstituted ammonia assay reagent (containing about 4 mM α-ketoglutarate and about 300 μM NADPH), WT rHuADA2 or variants at 1 μg/mL (17 nM) and glutamate dehydrogenase (GDH, 1:50 dilution). 85 μL of adenosine was added to 85 μL 2× mixture in duplicate in a UV-transparent half-area plate. The change in absorbance (ΔA) at 340 nm over time at room temperature was monitored.\nFor the enzymatic assay at pH 6.5, adenosine was serially diluted with 200 mM piperazine-N,N′-bis(2-ethanesulfonic acid) (PIPES), pH 6.5. A 2× reaction mixture in 200 mM PIPES, pH 6.5 was prepared, containing 4 mM α-ketoglutarate, 300 μM NADPH, 1 μg/mL (17 nM) rHuADA2 or variants and 50 U/mL GDH (Cat No. G2626, Sigma-Aldrich). The enzymatic reaction was initiated by adding equal volume of adenosine to the 2× mixture in a UV-transparent half-area plate as described above, and the change in absorbance (AA) at 340 nm over time at room temperature was monitored.\nAdenosine deaminase activity in mU/mL (μM/min equivalent) was calculated using the following formula: 1 mU/mL=−(−ΔA/min×Tv)/(Sv×ϵ×1) • where Tv=total volume (170 μL), Sv=sample volume (85 μL), ϵ=6.22×10^−3 μM^−1 cm^−1, 1=1 cm.\nThe activity data were fitted with non-linear regression of Michaelis-Menten equation using Graphpad Prism software to obtain Km and Vmax. Other kinetics parameters such as kcat and kcat/Km were also determined."}}}
{"molecule": "B1", "values": [{"measurement": "enzymatic activity relative to WT rHuADA2", "setting": "[1]", "value": "reduced adenosine deaminase activity"}, {"measurement": "adenosine deaminase activity mU/mL", "setting": "[1]", "value": 53.3, "unit": "mU/mL"}, {"measurement": "ΔA/min, adenosine deaminase activity", "setting": "[1]", "value": 23.2}, {"measurement": "% activity vs. WT", "setting": "[1]", "value": 68.4, "unit": "%"}, {"measurement": "heparin binding compared to WT", "setting": "[2]", "value": "reduced heparin binding"}, {"measurement": "Heparin Column Binding", "setting": "[2]", "value": "Reduced"}]}
{"molecule": "B2", "values": [{"measurement": "Km", "setting": "[3]; pH 6.5", "value": 0.994, "unit": "mM"}, {"measurement": "Km", "setting": "[3]; pH 6.5, [E] = 8.5 nM", "value": 0.994, "unit": "mM"}, {"measurement": "Vmax", "setting": "[3]; pH 6.5, [E] = 8.5 nM", "value": 42.15, "unit": "µM/min"}, {"measurement": "kcat", "setting": "[3]; pH 6.5, [E] = 8.5 nM", "value": 82.65, "unit": "s⁻¹"}, {"measurement": "Km", "setting": "[3]; pH 7.6", "value": 1.92, "unit": "mM"}, {"measurement": "Km", "setting": "[3]; pH 7.6, [E] = 8.5 nM", "value": 1.92, "unit": "mM"}, {"measurement": "Vmax", "setting": "[3]; pH 7.6, [E] = 8.5 nM", "value": 59.28, "unit": "µM/min"}, {"measurement": "kcat", "setting": "[3]; pH 7.6, [E] = 8.5 nM", "value": 116.24, "unit": "s⁻¹"}, {"measurement": "Adenosine deaminase activity mU/ml", "setting": "[1]; purified protein at 5 μg/mL", "value": 132.9, "unit": "mU/ml"}, {"measurement": "Adenosine deaminase activity ΔA/min", "setting": "[1]; purified protein at 5 μg/mL", "value": "57.8 ΔA/min"}, {"measurement": "% of WT activity", "setting": "[1]; purified protein at 5 μg/mL, compared to WT-ADA2", "value": 170, "unit": "%"}]}
{"molecule": "B3", "values": [{"measurement": "enzymatic activity relative to WT rHuADA2", "setting": "[1]", "value": "reduced adenosine deaminase activity"}, {"measurement": "adenosine deaminase activity mU/mL", "setting": "[1]", "value": 15.9, "unit": "mU/mL"}, {"measurement": "ΔA/min, adenosine deaminase activity", "setting": "[1]", "value": 6.9}, {"measurement": "% activity vs. WT", "setting": "[1]", "value": 20.3, "unit": "%"}, {"measurement": "heparin binding compared to WT", "setting": "[2]", "value": "reduced heparin binding"}, {"measurement": "Heparin Column Binding", "setting": "[2]", "value": "Reduced"}]}
